The source of these data is publication PMC6141585.

In the test the target is actin filaments in growth cones of cultured hippocampal neurons (mouse (endogenous in cultured hippocampal neurons)). Put plainly: FRET or BRET; acceptor photobleaching FRET in growth cones of fixed 2 DIV hippocampal neurons; donor GFP or GFP-tagged construct, acceptor TRITC-phalloidin on actin filaments.

On to “MAP6-E-GFP (rat MAP6-E fused to GFP) (from UniProt Q63560 1-614) (natural protein)”, for which the FRET efficiency turned out to be 52%.
